Laboratory results as given in PMC4570271, “Resolution of structure of PIP5K1A reveals molecular mechanism for its regulation by dimerization and dishevelled” (Nature Communications, 2015).

T1: zebrafish PIP5K1A kinase catalytic domain (residues 49-431), wild type (zebrafish, UniProt Q503I3 49-431)
T1 chain: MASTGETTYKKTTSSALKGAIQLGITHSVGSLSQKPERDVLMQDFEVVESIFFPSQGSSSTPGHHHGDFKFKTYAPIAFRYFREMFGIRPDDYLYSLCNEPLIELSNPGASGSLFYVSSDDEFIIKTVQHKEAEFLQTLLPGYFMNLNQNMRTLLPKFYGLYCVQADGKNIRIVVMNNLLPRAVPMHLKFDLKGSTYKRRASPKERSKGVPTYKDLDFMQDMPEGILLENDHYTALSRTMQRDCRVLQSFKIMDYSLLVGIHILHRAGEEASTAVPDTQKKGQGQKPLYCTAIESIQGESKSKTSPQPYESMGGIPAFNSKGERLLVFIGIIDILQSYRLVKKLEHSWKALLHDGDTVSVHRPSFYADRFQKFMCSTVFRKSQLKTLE

B1: zebrafish PIP5K1A kinase catalytic domain (residues 49-431), wild type (domain or fragment)
chain: MASTGETTYKKTTSSALKGAIQLGITHSVGSLSQKPERDVLMQDFEVVESIFFPSQGSSSTPGHHHGDFKFKTYAPIAFRYFREMFGIRPDDYLYSLCNEPLIELSNPGASGSLFYVSSDDEFIIKTVQHKEAEFLQTLLPGYFMNLNQNMRTLLPKFYGLYCVQADGKNIRIVVMNNLLPRAVPMHLKFDLKGSTYKRRASPKERSKGVPTYKDLDFMQDMPEGILLENDHYTALSRTMQRDCRVLQSFKIMDYSLLVGIHILHRAGEEASTAVPDTQKKGQGQKPLYCTAIESIQGESKSKTSPQPYESMGGIPAFNSKGERLLVFIGIIDILQSYRLVKKLEHSWKALLHDGDTVSVHRPSFYADRFQKFMCSTVFRKSQLKTLE
notes: kinase catalytic domain of zebrafish PIP5K1Aα, residues 49-431; C-terminal 'Leu-Glu' that precedes the His6 tag; Dimer by SEC/MALLS and in the crystal; also called zPIP5K1A; PIP5K1A kinase domain; not shown: His6, C-terminal, kept
B2: GST-tagged DIX domain of mouse DVL1 (residues 1-106) with Y17D (domain or fragment, UniProt P51141 1-106, looked up)
chain: MAETKIIYHMDEEETPDLVKLPVAPERVTLADFKNVLSNRPVHAYKFFFKSMDQDFGVVKEEIFDDNAKLPCFNGRVVSWLVLAEGAHSDAGSQGTDSHTDLPPPL
notes: DIX domain of mouse DVL1, residues 1-106, Y17D to eliminate DIX aggregation; A longer construct 1-200 (DIX-L) is named in the methods but tied to no experiment; also called DVL DIX; GST-DVL; source: E. coli, purified (glutathione-agarose beads, size-exclusion chromatography)

Legend:
[1] = target: B2; experiment: cell-based or functional assay
[2] = target: the molecule itself; experiment: SEC-MALS; Superdex S-200 10/30 HR; 10 mM HEPES (pH 7.3), 300 mM NaCl, 5% glycerol, 0.01% TX-100; 0.5 ml/min
[3] = target: T2, zebrafish PIP5K1A kinase catalytic domain, triple D84R/L86A/V291A (DLV) mutant (zebrafish, UniProt Q503I3 49-431, D84R | L86A | V291A); experiment: pull-down; GST-DIX (or GST) 0.5 μg and His-tagged PIP5K1 0.5 μg in 200 μl of 10 mM HEPES (pH 7.4), 150 mM NaCl, 0.2% Triton, 0.01% SDS, 3 mM dithiothreitol, 10% glycerol; 4 °C overnight; glutathione beads; western blotting; conditions: both partners purified
T2 construct: kinase catalytic domain of zebrafish PIP5K1Aα, residues 49-431; C-terminal 'Leu-Glu' that precedes the His6 tag; Monomeric by SEC/MALLS; also called monomeric mutant DLV; TM-PIP5K; source: E. coli BL21-CodonPlus(DE3)-RIL, purified in the same way as the wild-type protein; not shown: His6, C-terminal, kept

[4] = target: B1; experiment: as above; conditions: both partners purified
[5] = target: T1, zebrafish PIP5K1A kinase catalytic …; experiment: ITC

fold activation of the lipid kinase activity by DIX [1] [fold] | binding result [3] | binding result [4] | Kd [5] [nM] | Binder | stoichiometry N [2]
3 | – | – | – | B1 | 2
– | binds | binds | 1200 | B2 | –
